The Immune Epitope Database (IEDB)

What was measured:
HLA-C*03:03 = assay: IEDB peptide-MHC binding, purified MHC/direct/fluorescence; filed as Kd, often an IC50 or EC50 that approximates it; ≥ and ≤ were set here for values at or beyond the usual limits of such assays
HLA-A*01:01 [1] = assay: IEDB peptide-MHC binding, purified MHC/competitive/fluorescence; ≥ and ≤ were set here for values at or beyond the usual limits of such assays; settings: source organism: Sudan ebolavirus
HLA-A*02:01 [2] = assay: as above; settings: source organism: Sudan ebolavirus
HLA-B*15:01 [3] = assay: as above; settings: source organism: Sudan ebolavirus
HLA-A*02:03 = assay: IEDB peptide-MHC binding, purified MHC/direct/fluorescence; filed as Kd, often an IC50 or EC50 that approximates it; ≥ and ≤ were set here for values at or beyond the usual limits of such assays
HLA-A*02:11 = assay: as above
HLA-A*02:12 = assay: as above
HLA-A*02:16 = assay: as above
HLA-A*02:19 = assay: as above
HLA-A*03:01 [4] = assay: as above
HLA-A*24:03 = assay: as above
HLA-A*26:01 = assay: as above
HLA-A*68:02 = assay: as above
HLA-C*08:02 = assay: as above
HLA-A*02:01 [5] = assay: IEDB peptide-MHC binding, purified MHC/competitive/fluorescence; filed as Kd, often an IC50 or EC50 that approximates it; ≥ and ≤ were set here for values at or beyond the usual limits of such assays
HLA-A*69:01 [6] = assay: as above; settings: source organism: Sudan ebolavirus
HLA-B*27:03 [7] = assay: as above; settings: source organism: Sudan ebolavirus
HLA-B*39:01 [8] = assay: as above; settings: source organism: Sudan ebolavirus
HLA-B*46:01 [9] = assay: as above; settings: source organism: Sudan ebolavirus
HLA-B*51:01 [10] = assay: as above
HLA-B*57:01 [11] = assay: as above; settings: source organism: Sudan ebolavirus
HLA-A*03:01 [12] = assay: as above; settings: source organism: Salmonella enterica subsp. enterica serovar Typhi
HLA-A*31:01 = assay: as above; settings: source organism: Salmonella enterica subsp. enterica serovar Typhi
HLA-A*68:23 = assay: as above; settings: source organism: Salmonella enterica subsp. enterica serovar Typhi
HLA-B*15:01 [13] = assay: as above; settings: source organism: Salmonella enterica subsp. enterica serovar Typhi
HLA-B*15:42 = assay: as above
HLA-B*45:06 = assay: as above
HLA-B*83:01 = assay: as above; settings: source organism: Salmonella enterica subsp. enterica serovar Typhi
HLA-C*04:01 = assay: as above
HLA-A*01:01 [14] = assay: as above; settings: source organism: Yersinia pestis Nepal516
HLA-B*58:01 = assay: as above; settings: source organism: Yersinia pestis Nepal516
HLA-B*07:02 = assay: IEDB peptide-MHC binding, purified MHC/direct/fluorescence; filed as Kd, often an IC50 or EC50 that approximates it; ≥ and ≤ were set here for values at or beyond the usual limits of such assays; settings: source organism: Orthohantavirus hantanense
HLA-B*51:01 [15] = assay: as above
HLA-A*02:01 [16] = assay: as above
HLA-A*23:01 = assay: as above; settings: source organism: Salmonella enterica subsp. enterica serovar Typhimurium str. LT2
HLA-A*29:02 = assay: as above
HLA-A*69:01 [17] = assay: as above; settings: source organism: Salmonella enterica subsp. enterica serovar Typhimurium str. LT2
HLA-B*15:01 [18] = assay: as above
HLA-B*15:17 = assay: as above; settings: source organism: Salmonella enterica subsp. enterica serovar Typhimurium str. LT2
HLA-B*18:01 = assay: as above
HLA-B*27:03 [19] = assay: as above
HLA-B*46:01 [20] = assay: as above
HLA-B*57:01 [21] = assay: as above; settings: source organism: Salmonella enterica subsp. enterica serovar Typhimurium str. LT2
HLA-B*39:01 [22] = assay: as above; settings: source organism: Mycobacterium tuberculosis str. Haarlem
[23] = source organism: Sudan ebolavirus
[24] = source organism: Salmonella enterica subsp. enterica serovar Typhi
[25] = source organism: Yersinia pestis Nepal516
[26] = source organism: Hantaan virus 76-118
[27] = source organism: Salmonella enterica subsp. enterica serovar Typhimurium str. LT2
[28] = source organism: Mycobacterium tuberculosis str. Haarlem

Sequence: YISPIFIPM
- Kd (HLA-C*03:03; source organism: Rickettsia sibirica 246): ≤ 0.001 µM

Sequence: YTENTSSYY
- IC50 (HLA-A*01:01 [1]): 0.927 µM
- IC50 (HLA-A*02:01 [2]): ≥ 213 µM
- IC50 (HLA-B*15:01 [3]): 23.1 µM
- Kd (HLA-A*02:03; [23]): ≥ 20 µM
- Kd (HLA-A*02:11; [23]): ≥ 20 µM
- Kd (HLA-A*02:12; [23]): ≥ 20 µM
- Kd (HLA-A*02:16; [23]): ≥ 20 µM
- Kd (HLA-A*02:19; [23]): ≥ 20 µM
- Kd (HLA-A*03:01 [4]; [23]): ≥ 20 µM
- Kd (HLA-A*24:03; [23]): ≥ 20 µM
- Kd (HLA-A*26:01; source organism: Sudan virus - Boniface, Sudan,1976): 0.007 µM
- Kd (HLA-A*68:02; [23]): ≥ 20 µM
- Kd (HLA-C*08:02; [23]): ≥ 20 µM
- Kd (HLA-A*02:01 [5]; [23]): ≥ 20 µM
- Kd (HLA-A*69:01 [6]): ≥ 20 µM
- Kd (HLA-B*27:03 [7]): ≥ 20 µM
- Kd (HLA-B*39:01 [8]): ≥ 20 µM
- Kd (HLA-B*46:01 [9]): ≥ 20 µM
- Kd (HLA-B*51:01 [10]; [23]): ≥ 20 µM
- Kd (HLA-B*57:01 [11]): ≥ 20 µM

Sequence: STFDLYVYR
- Kd (HLA-A*03:01 [12]): 3.21 µM
- Kd (HLA-A*31:01): 0.0243 µM
- Kd (HLA-A*68:23): 0.0139 µM
- Kd (HLA-B*15:01 [13]): ≥ 20 µM
- Kd (HLA-B*15:42; [24]): ≥ 5 µM
- Kd (HLA-B*45:06; [24]): ≥ 5 µM
- Kd (HLA-B*83:01): ≥ 5 µM
- Kd (HLA-C*04:01; [24]): ≥ 5 µM

Sequence: MTSELAALI
- Kd (HLA-C*08:02; [25]): 0.415 µM
- Kd (HLA-A*01:01 [14]): ≥ 20 µM
- Kd (HLA-A*02:01 [5]; [25]): 0.0073 µM
- Kd (HLA-B*51:01 [10]; [25]): ≥ 20 µM
- Kd (HLA-B*58:01): 0.0225 µM

Sequence: TPGRYRTAV
- Kd (HLA-B*07:02): ≤ 0.001 µM
- Kd (HLA-B*51:01 [15]; source organism: Orthohantavirus hantanense): ≥ 20 µM
- Kd (HLA-B*15:42; [26]): ≥ 5 µM
- Kd (HLA-B*45:06; [26]): ≥ 5 µM
- Kd (HLA-C*04:01; [26]): ≥ 5 µM

Sequence: LAYARGQAM
- Kd (HLA-C*03:03; source organism: Human herpesvirus 4 strain B95-8): ≤ 0.001 µM

Sequence: FKYDSTKPL
- Kd (HLA-A*02:01 [16]; [27]): ≥ 20 µM
- Kd (HLA-A*02:03; [27]): ≥ 20 µM
- Kd (HLA-A*02:11; [27]): ≥ 20 µM
- Kd (HLA-A*02:12; [27]): ≥ 20 µM
- Kd (HLA-A*02:16; [27]): ≥ 20 µM
- Kd (HLA-A*02:19; [27]): ≥ 20 µM
- Kd (HLA-A*03:01 [4]; [27]): ≥ 20 µM
- Kd (HLA-A*23:01): ≥ 20 µM
- Kd (HLA-A*24:03; [27]): ≥ 20 µM
- Kd (HLA-A*26:01; [27]): ≥ 20 µM
- Kd (HLA-A*29:02; [27]): ≥ 20 µM
- Kd (HLA-A*68:02; [27]): ≥ 20 µM
- Kd (HLA-A*69:01 [17]): ≥ 20 µM
- Kd (HLA-B*15:01 [18]; [27]): ≥ 20 µM
- Kd (HLA-B*15:17): ≥ 20 µM
- Kd (HLA-B*18:01; [27]): ≥ 20 µM
- Kd (HLA-B*27:03 [19]; [27]): ≥ 20 µM
- Kd (HLA-B*46:01 [20]; [27]): ≥ 20 µM
- Kd (HLA-B*51:01 [15]; [27]): ≥ 20 µM
- Kd (HLA-B*57:01 [21]): ≥ 20 µM

Sequence: MAVTAAPYI
- Kd (HLA-A*02:01 [16]; [28]): ≥ 20 µM
- Kd (HLA-A*02:03; [28]): ≥ 20 µM
- Kd (HLA-A*02:11; [28]): ≥ 20 µM
- Kd (HLA-A*02:12; [28]): ≥ 20 µM
- Kd (HLA-A*02:16; [28]): ≥ 20 µM
- Kd (HLA-A*02:19; [28]): ≥ 20 µM
- Kd (HLA-A*03:01 [4]; [28]): ≥ 20 µM
- Kd (HLA-A*24:03; [28]): ≥ 20 µM
- Kd (HLA-A*26:01; [28]): ≥ 20 µM
- Kd (HLA-A*29:02; [28]): ≥ 20 µM
- Kd (HLA-B*15:01 [18]; [28]): ≥ 20 µM
- Kd (HLA-B*18:01; [28]): ≥ 20 µM
- Kd (HLA-B*27:03 [19]; [28]): ≥ 20 µM
- Kd (HLA-B*39:01 [22]): ≥ 20 µM
- Kd (HLA-B*46:01 [20]; [28]): ≥ 20 µM
- Kd (HLA-B*51:01 [15]; [28]): 0.103 µM
